Source: patent US20240270821A1, “GIP/GLP1/GCG TRI-RECEPTOR AGONISTS AND USES THEREOF” (priority 2023, published 2024)
Positions count from the first letter of the chain named.

T1: human GIP receptor (human) (UniProt P48546)
T1 sequence (looked up): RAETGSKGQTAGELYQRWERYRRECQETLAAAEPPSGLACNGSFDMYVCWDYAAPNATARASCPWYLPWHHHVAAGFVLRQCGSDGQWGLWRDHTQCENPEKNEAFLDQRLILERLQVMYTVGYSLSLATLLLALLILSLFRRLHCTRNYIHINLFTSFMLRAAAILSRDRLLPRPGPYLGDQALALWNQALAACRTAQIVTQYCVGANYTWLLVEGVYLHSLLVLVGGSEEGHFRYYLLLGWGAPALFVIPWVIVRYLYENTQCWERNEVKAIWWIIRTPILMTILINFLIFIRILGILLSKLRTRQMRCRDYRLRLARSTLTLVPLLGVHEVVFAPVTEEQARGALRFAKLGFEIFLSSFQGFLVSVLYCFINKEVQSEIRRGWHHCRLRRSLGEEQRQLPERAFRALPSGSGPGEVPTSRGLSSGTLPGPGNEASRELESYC

B1: Example 244 (peptide)
chain: YXQGTFTSDFSXXLDKKAQXAFIEYLLEXGESSGAPPPSGS
modifications: Aib, Orn, αMeL; γGlu-AEEA-γGlu-C18 diacid on Lys; C-terminal amide; synthetic construct; SITE 2: note = 2-Aminoisobutyric Acid; SITE 12: note = L-ornithine; SITE 13: note = alpha-methyl-leucine; SITE 17: note = Lysine is chemically modified through conjugation of the epsilon-amino group of the Lysine side chain with (gamma-Glu)-(2-[2-(2-Amino-ethoxy)-ethoxy]-acetyl)
B2: Example 237 (peptide)
chain: B1 chain with X29G, E31P, P38X, S39G
modifications: non-natural residues; lipidated Lys AEEA-γGlu-C18 diacid; C-term amide; synthetic construct; SITE 2: note = 2-Aminoisobutyric Acid; SITE 12: note = L-ornithine; SITE 13: note = alpha-methyl-leucine; SITE 17: note = Lysine is chemically modified through conjugation of the epsilon-amino group of the Lysine side chain with (2-[2-(2-Amino-ethoxy)-ethoxy]-acetyl)-(gamma-Glu)
B3: Example 194 (peptide)
chain: B1 chain with E31P, S39E
modifications: Aib, Orn, αMeL; acylated lysine; C-terminal amide; synthetic construct; SITE 2: note = 2-Aminoisobutyric Acid; SITE 12: note = L-ornithine; SITE 13: note = alpha-methyl-leucine; SITE 17: note = Lysine is chemically modified through conjugation of the epsilon-amino group of the Lysine side chain with (2-[2-(2-Amino-ethoxy)-ethoxy]-acetyl)2-(gamma-Glu)
B4: Example 190 (peptide)
chain: B1 chain with F10X, E31H
modifications: Aib, F(4CN), Orn, αMeL; lysine acylated C18 diacid; amide; synthetic construct; SITE 2: note = 2-Aminoisobutyric Acid; SITE 10: note = 4-cyano-L-phenylalanine; SITE 12: note = L-ornithine; SITE 13: note = alpha-methyl-leucine; SITE 17: note = Lysine is chemically modified through conjugation of the epsilon-amino group of the Lysine side chain with (2-[2-(2-
B5: Example 219 (peptide)
chain: B1 chain with L27I, S41E
modifications: non-natural residues; lipidated Lys; C-terminal amide; synthetic construct; SITE 2: note = 2-Aminoisobutyric Acid; SITE 12: note = L-ornithine; SITE 13: note = alpha-methyl-leucine; SITE 17: note = Lysine is chemically modified through conjugation of the epsilon-amino group of the Lysine side chain with (2-[2-(2-Amino-ethoxy)-ethoxy]-acetyl)-(gamma-Glu)
B6: Example 216 (peptide)
chain: B1 chain with X12K, L27I
modifications: Aib, αMeL; K acylated AEEA-γGlu-C18 diacid; C-amide; synthetic construct; SITE 2: note = 2-Aminoisobutyric Acid; SITE 13: note = alpha-methyl-leucine; SITE 17: note = Lysine is chemically modified through conjugation of the epsilon-amino group of the Lysine side chain with (2-[2-(2-Amino-ethoxy)-ethoxy]-acetyl)-(gamma-Glu)-CO-(CH2) 16-CO2H; SITE 20: n
B7: Example 228 (peptide)
chain: B1 chain with L27I, S41E
modifications: non-natural residues, acylated Lys, C-terminal amide; synthetic construct; SITE 2: note = 2-Aminoisobutyric Acid; SITE 12: note = L-ornithine; SITE 13: note = alpha-methyl-leucine; SITE 17: note = Lysine is chemically modified through conjugation of the epsilon-amino group of the Lysine side chain with (2-[2-(2-Amino-ethoxy)-ethoxy]-acetyl)-(gamma-Glu)
B8: Example 178 (peptide)
chain: B1 chain with F10X, E31P
modifications: Aib, F(4CN), Orn, αMeL; lipidated Lys; C-terminal amide; synthetic construct; SITE 2: note = 2-Aminoisobutyric Acid; SITE 10: note = 4-cyano-L-phenylalanine; SITE 12: note = L-ornithine; SITE 13: note = alpha-methyl-leucine; SITE 17: note = Lysine is chemically modified through conjugation of the epsilon-amino group of the Lysine side chain with (2-[2-(2-
B9: Example 245 (peptide)
chain: B1 chain with E31H
modifications: Aib, Orn, αMeL; lipidated Lys; C-terminal amide; synthetic construct; SITE 2: note = 2-Aminoisobutyric Acid; SITE 12: note = L-ornithine; SITE 13: note = alpha-methyl-leucine; SITE 17: note = Lysine is chemically modified through conjugation of the epsilon-amino group of the Lysine side chain with (gamma-Glu)-(2-[2-(2-Amino-ethoxy)-ethoxy]-acetyl)
B10: Example 236 (peptide)
chain: B1 chain with X29G, E31P, P37X, S39G
modifications: Aib, Orn, αMeL, Hyp; acylated Lys; C-terminal amide; synthetic construct; SITE 2: note = 2-Aminoisobutyric Acid; SITE 12: note = L-ornithine; SITE 13: note = alpha-methyl-leucine; SITE 17: note = Lysine is chemically modified through conjugation of the epsilon-amino group of the Lysine side chain with (2-[2-(2-Amino-ethoxy)-ethoxy]-acetyl)-(gamma-Glu)
B11: Example 206 (peptide)
chain: B1 chain with X29A, E31P, S39E, S41E
modifications: Aib, Orn, αMeL, D-Ala; AEEA-γGlu-C18 diacid acyl; amide; synthetic construct; SITE 2: note = 2-Aminoisobutyric Acid; SITE 12: note = L-ornithine; SITE 13: note = alpha-methyl-leucine; SITE 17: note = Lysine is chemically modified through conjugation of the epsilon-amino group of the Lysine side chain with (2-[2-(2-Amino-ethoxy)-ethoxy]-acetyl)-(gamma-Glu)
B12: Example 220 (peptide)
chain: B1 chain with X12R, L27I, X29G
modifications: non-natural residues; lysine acylated with AEEA linker C18 diacid; C-amide; synthetic construct; SITE 2: note = 2-Aminoisobutyric Acid; SITE 13: note = alpha-methyl-leucine; SITE 17: note = Lysine is chemically modified through conjugation of the epsilon-amino group of the Lysine side chain with (2-[2-(2-Amino-ethoxy)-ethoxy]-acetyl)-(gamma-Glu)-CO-(CH2) 16-CO2H; SITE 20: n
B13: Example 213 (peptide)
chain: B1 chain with X29A, E31P, S41T
modifications: non-natural residues, AEEA-γGlu-C18 diacid acylation; synthetic construct; SITE 2: note = 2-Aminoisobutyric Acid; SITE 12: note = L-ornithine; SITE 13: note = alpha-methyl-leucine; SITE 17: note = Lysine is chemically modified through conjugation of the epsilon-amino group of the Lysine side chain with (2-[2-(2-Amino-ethoxy)-ethoxy]-acetyl)-(gamma-Glu)
B14: Example 218 (peptide)
chain: B1 chain with L27I
modifications: acylated Lys, C-terminal amide, non-natural residues; synthetic construct; SITE 2: note = 2-Aminoisobutyric Acid; SITE 12: note = L-ornithine; SITE 13: note = alpha-methyl-leucine; SITE 17: note = Lysine is chemically modified through conjugation of the epsilon-amino group of the Lysine side chain with (2-[2-(2-Amino-ethoxy)-ethoxy]-acetyl)-(gamma-Glu)
B15: Example 207 (peptide)
chain: B1 chain with X29A, E31H, S41E
modifications: Aib, Orn, αMeL, D-Ala; lysine acylated C18 diacid; amide; synthetic construct; SITE 2: note = 2-Aminoisobutyric Acid; SITE 12: note = L-ornithine; SITE 13: note = alpha-methyl-leucine; SITE 17: note = Lysine is chemically modified through conjugation of the epsilon-amino group of the Lysine side chain with (2-[2-(2-Amino-ethoxy)-ethoxy]-acetyl)-(gamma-Glu)
B16: Example 180 (peptide)
chain: B1 chain with S41T
modifications: Aib, Orn, αMeL, acylated K, C-terminal amide; synthetic construct; SITE 2: note = 2-Aminoisobutyric Acid; SITE 12: note = L-ornithine; SITE 13: note = alpha-methyl-leucine; SITE 17: note = Lysine is chemically modified through conjugation of the epsilon-amino group of the Lysine side chain with (2-[2-(2-Amino-ethoxy)-ethoxy]-acetyl)2-(gamma-Glu)

target: human glucagon receptor (human) (UniProt P47871); assay: cell-based or functional assay
Sequence (P47871 26-477): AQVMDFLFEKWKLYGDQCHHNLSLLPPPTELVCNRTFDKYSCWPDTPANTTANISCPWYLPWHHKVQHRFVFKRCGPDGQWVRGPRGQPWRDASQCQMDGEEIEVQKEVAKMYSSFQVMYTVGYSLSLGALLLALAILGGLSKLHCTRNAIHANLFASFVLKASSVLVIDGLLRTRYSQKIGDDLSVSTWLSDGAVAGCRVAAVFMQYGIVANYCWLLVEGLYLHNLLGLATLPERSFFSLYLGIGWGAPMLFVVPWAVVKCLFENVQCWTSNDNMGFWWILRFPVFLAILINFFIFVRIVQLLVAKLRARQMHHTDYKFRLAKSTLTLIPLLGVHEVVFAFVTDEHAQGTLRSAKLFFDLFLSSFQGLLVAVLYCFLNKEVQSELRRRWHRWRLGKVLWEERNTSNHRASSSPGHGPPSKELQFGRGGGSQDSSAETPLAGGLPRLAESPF

Binder | Relative cAMP EC50 | cAMP Rel EC50, nM (1% HSA) | Relative cAMP EC50, nM (0.1% casein)
B1 | 4.81 nM | 1230 nM | –
B2 | 3.77 nM | 441 nM | –
B3 | – | 813 nM | 4.32 nM
B4 | – | 331 nM | 2.95 nM
B5 | 7.77 nM | – | –
B6 | 2.7 nM | 895 nM | –
B7 | 1.38 nM | – | –
B8 | – | – | 7.29 nM
B9 | 7.07 nM | 1120 nM | –
B10 | 2.23 nM | 309 nM | –
B11 | 2.2 nM | 545 nM | –
B12 | 11.2 nM | 1990 nM | –
B13 | 3.61 nM | – | –
B14 | 7.89 nM | – | –
B15 | 4.24 nM | 770 nM | –
B16 | – | 1320 nM | 2.44 nM

target: hGLP-1R (Homo sapiens, UniProt P43220); assay: cell-based or functional assay
Sequence (P43220 24-463): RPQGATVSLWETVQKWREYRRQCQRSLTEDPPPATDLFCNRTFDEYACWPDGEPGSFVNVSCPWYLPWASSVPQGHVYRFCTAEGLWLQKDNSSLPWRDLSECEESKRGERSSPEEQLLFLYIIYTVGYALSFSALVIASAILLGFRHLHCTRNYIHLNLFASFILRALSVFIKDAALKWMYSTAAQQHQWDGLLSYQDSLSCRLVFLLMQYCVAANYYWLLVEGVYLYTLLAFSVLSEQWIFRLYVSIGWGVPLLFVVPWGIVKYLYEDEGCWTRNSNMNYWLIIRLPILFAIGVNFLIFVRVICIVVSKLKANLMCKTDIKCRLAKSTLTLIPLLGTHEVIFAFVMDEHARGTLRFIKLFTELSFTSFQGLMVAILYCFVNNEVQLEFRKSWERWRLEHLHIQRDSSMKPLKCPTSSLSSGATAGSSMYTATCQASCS

Binder | Relative cAMP EC50 | cAMP Rel EC50, nM (1% HSA) | Relative cAMP EC50, nM (0.1% casein)
B1 | 7.68 nM | 645 nM | –
B2 | 3.4 nM | 291 nM | –
B3 | – | 697 nM | 4.69 nM
B4 | – | 172 nM | 1.41 nM
B5 | 0.835 nM | – | –
B6 | 0.52 nM | 90.6 nM | –
B7 | 1.52 nM | – | –
B8 | – | – | 4.01 nM
B9 | 5.99 nM | 540 nM | –
B10 | 3.33 nM | 261 nM | –
B11 | 2.77 nM | 372 nM | –
B12 | 1.01 nM | 189 nM | –
B13 | 1.9 nM | – | –
B14 | 0.76 nM | – | –
B15 | 4.36 nM | 225 nM | –
B16 | – | 891 nM | 5.08 nM

target: T1, human GIP receptor (human); assay: cell-based or functional assay

Binder | Relative cAMP EC50 | cAMP Rel EC50, nM (1% HSA) | Relative cAMP EC50, nM (0.1% casein)
B1 | 0.0972 nM | 18.8 nM | –
B2 | 0.228 nM | 30.9 nM | –
B3 | – | 19.7 nM | 0.212 nM
B4 | – | 59.4 nM | 0.306 nM
B5 | 0.119 nM | – | –
B6 | 0.0887 nM | 12 nM | –
B7 | 0.147 nM | – | –
B8 | – | – | 0.34 nM
B9 | 0.0684 nM | 10.5 nM | –
B10 | 0.309 nM | 24.8 nM | –
B11 | 0.224 nM | 38.8 nM | –
B12 | 0.411 nM | 87.1 nM | –
B13 | 0.124 nM | – | –
B14 | 0.0853 nM | – | –
B15 | 0.321 nM | 15.2 nM | –
B16 | – | 24 nM | 0.14 nM
